From patent publication US20160222130A1 (Astellas, published 2016)

Tests used:
Experiment in all cases: SPR (Biacore T200); Tie2-Fc captured on anti-human IgG (Fc), Fab at 50 nM; mean of 3
[1] = target: T1, Human Tie2 (1-452)r3-Fc (human, UniProt Q02763 23-452)
T1 construct: range 1-452
Protocol: (§1) SPR analysis was carried out in order to evaluate the binding activity of the human Tie2 (1-452)-Fc chimera protein and 23 mutant proteins thereof to the fully human 2-16A2-Fab.
(§2) For SPR analysis, Biacore T200 (GE Healthcare) was used. An anti-human IgG (Fc) antibody (Human Antibody Capture Kit, GE Healthcare) was fixed onto a CM5 sensor chip. The human Tie2 (1-452)-Fc chimeric protein and 23 mutant proteins thereof, diluted with HBS-EP (GE Healthcare) at 5 μg/mL, were each allowed for immobilization, and the capture-amount was measured. Thereafter, the fully human 2-16A2-Fab diluted with HBS-EP to 50 nM, the binding amount thereof to the human Tie2 (1-452)-Fc chimeric protein and 23 mutant proteins thereof were measured. Further, by dividing the binding amount with the capture-amount, the binding amount of the antibody in the unit immobilized antigen (hereinafter referred to as a binding ratio) was calculated. The arithmetic mean of three experiments and the relative value of the binding ratio of each mutant proteins when the binding ratio of the human Tie2 (1-452)-Fc chimeric protein was taken as 100% are shown in Table 7.

[2] = target: T2, Human Tie2 (1-452)r6-Fc (human, UniProt Q02763 23-452)
T2 construct: range 1-452
Protocol: as §1, §2

[3] = target: T3, Human Tie2 (1-452)r7-Fc (human, UniProt Q02763 23-452)
T3 construct: range 1-452
Protocol: as §1, §2

[4] = target: T4, Human Tie2 (1-452)g2-Fc (human, UniProt Q02763 23-452)
T4 construct: range 1-452
Protocol: as §1, §2

[5] = target: T5, Human Tie2 (1-452)g3-Fc (human, UniProt Q02763 23-452)
T5 construct: range 1-452
Protocol: as §1, §2

[6] = target: T6, Human Tie2 (1-452)g5-Fc (human, UniProt Q02763 23-452)
T6 construct: range 1-452
Protocol: as §1, §2

[7] = target: T7, Human Tie2 (1-452)g6-Fc (human, UniProt Q02763 23-452)
T7 construct: range 1-452
Protocol: as §1, §2

[8] = target: T8, Human Tie2 (1-452)m1-Fc (human, UniProt Q02763 23-452)
T8 construct: range 1-452
Protocol: as §1, §2

[9] = target: T9, Human Tie2 (1-452)m3-Fc (human, UniProt Q02763 23-452)
T9 construct: range 1-452
Protocol: as §1, §2

[10] = target: T10, Human Tie2 (1-452)c1-Fc (human, UniProt Q02763 23-452)
T10 construct: range 1-452
Protocol: as §1, §2

[11] = target: T11, Human Tie2 (1-452)A1-Fc (human, UniProt Q02763 23-452)
T11 construct: range 1-452
Protocol: as §1, §2

[12] = target: T12, Human Tie2 (1-452)A3-Fc (human, UniProt Q02763 23-452)
T12 construct: range 1-452
Protocol: as §1, §2

[13] = target: T13, Human Tie2 (1-452)A4-Fc (human, UniProt Q02763 23-452)
T13 construct: range 1-452
Protocol: as §1, §2

[14] = target: T14, Human Tie2 (1-452)A5-Fc (human, UniProt Q02763 23-452)
T14 construct: range 1-452
Protocol: as §1, §2

[15] = target: T15, Human Tie2 (1-452)A6-Fc (human, UniProt Q02763 23-452)
T15 construct: range 1-452
Protocol: as §1, §2

[16] = target: T16, human Tie2 (1-452)-Fc chimeric protein (human, UniProt Q02763 23-452)
T16 construct: range 1-452; The stated range 1-452 begins at residue 1 of the precursor
Protocol: as §1, §2

T4 sequence (Q02763 other isoform, or with tags, fused parts or gaps limits assumed, form in doubt): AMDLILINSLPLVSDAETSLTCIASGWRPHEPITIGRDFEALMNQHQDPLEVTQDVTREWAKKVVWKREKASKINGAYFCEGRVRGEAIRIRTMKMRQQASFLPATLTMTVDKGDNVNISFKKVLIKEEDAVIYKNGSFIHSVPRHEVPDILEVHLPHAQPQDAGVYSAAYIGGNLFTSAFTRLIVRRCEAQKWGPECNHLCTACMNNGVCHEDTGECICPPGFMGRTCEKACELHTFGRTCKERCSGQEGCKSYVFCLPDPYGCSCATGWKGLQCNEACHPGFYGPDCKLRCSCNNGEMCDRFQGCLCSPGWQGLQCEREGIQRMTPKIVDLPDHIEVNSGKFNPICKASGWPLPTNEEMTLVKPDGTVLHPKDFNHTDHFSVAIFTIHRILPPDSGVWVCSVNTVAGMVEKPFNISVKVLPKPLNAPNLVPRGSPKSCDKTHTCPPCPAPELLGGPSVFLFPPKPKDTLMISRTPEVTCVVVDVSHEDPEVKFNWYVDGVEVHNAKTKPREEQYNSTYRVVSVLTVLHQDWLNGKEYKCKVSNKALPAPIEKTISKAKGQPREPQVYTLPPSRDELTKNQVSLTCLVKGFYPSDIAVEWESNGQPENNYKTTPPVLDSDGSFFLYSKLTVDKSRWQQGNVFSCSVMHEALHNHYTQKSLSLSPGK
T5 sequence (Q02763 other isoform, or with tags, fused parts or gaps limits assumed, form in doubt): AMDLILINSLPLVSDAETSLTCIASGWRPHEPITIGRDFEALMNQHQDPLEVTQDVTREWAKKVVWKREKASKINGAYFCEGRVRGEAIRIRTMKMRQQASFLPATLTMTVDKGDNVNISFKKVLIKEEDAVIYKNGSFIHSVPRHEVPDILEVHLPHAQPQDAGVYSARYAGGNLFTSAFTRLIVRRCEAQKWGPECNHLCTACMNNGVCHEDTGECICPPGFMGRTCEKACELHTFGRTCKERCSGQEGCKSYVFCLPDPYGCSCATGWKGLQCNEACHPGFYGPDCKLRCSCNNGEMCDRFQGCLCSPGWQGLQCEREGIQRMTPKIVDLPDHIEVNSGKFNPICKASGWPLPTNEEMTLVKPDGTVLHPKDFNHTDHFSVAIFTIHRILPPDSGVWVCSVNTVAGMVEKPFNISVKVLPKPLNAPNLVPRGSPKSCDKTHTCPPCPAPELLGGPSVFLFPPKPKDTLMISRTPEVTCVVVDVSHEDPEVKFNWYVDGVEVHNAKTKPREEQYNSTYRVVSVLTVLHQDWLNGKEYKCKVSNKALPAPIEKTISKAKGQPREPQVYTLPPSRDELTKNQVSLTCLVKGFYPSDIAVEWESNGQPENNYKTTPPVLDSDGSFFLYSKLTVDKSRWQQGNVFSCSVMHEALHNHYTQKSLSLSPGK
T16 sequence (Q02763 other isoform, or with tags, fused parts or gaps mutant limits assumed, form in doubt): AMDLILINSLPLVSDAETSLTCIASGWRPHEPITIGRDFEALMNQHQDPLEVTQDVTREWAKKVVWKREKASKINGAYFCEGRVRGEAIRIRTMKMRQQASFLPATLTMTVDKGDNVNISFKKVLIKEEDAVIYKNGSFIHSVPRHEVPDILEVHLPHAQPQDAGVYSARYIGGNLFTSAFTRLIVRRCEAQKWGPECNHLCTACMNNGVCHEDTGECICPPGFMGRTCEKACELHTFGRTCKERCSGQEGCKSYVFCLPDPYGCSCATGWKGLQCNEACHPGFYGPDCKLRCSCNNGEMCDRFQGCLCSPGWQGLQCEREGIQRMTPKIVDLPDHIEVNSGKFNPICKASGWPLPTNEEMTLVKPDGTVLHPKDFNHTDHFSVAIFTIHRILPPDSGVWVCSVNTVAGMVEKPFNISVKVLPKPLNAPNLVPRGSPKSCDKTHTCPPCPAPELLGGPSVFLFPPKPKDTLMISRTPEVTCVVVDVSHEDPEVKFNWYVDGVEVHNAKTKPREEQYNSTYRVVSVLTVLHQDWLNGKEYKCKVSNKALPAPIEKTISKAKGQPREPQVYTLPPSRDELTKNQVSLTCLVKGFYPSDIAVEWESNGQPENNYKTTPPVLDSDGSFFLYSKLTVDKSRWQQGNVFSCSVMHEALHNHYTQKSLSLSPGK
T15 sequence (Q02763 other isoform, or with tags, fused parts or gaps limits assumed, form in doubt): as the sequence (Q02763 other isoform, or with tags, fused parts or gaps mutant limits assumed, form in doubt) above, with P144A counted along it
T7 sequence (Q02763 other isoform, or with tags, fused parts or gaps limits assumed, form in doubt): as the sequence (Q02763 other isoform, or with tags, fused parts or gaps mutant limits assumed, form in doubt) above, with L176A counted along it
T1 sequence (Q02763 other isoform, or with tags, fused parts or gaps limits assumed, form in doubt): as the sequence (Q02763 other isoform, or with tags, fused parts or gaps mutant limits assumed, form in doubt) above, with R145A counted along it
T13 sequence (Q02763 other isoform, or with tags, fused parts or gaps limits assumed, form in doubt): as the sequence (Q02763 other isoform, or with tags, fused parts or gaps mutant limits assumed, form in doubt) above, with F139A counted along it
T14 sequence (Q02763 other isoform, or with tags, fused parts or gaps limits assumed, form in doubt): as the sequence (Q02763 other isoform, or with tags, fused parts or gaps mutant limits assumed, form in doubt) above, with S142A counted along it
T6 sequence (Q02763 other isoform, or with tags, fused parts or gaps limits assumed, form in doubt): as the sequence (Q02763 other isoform, or with tags, fused parts or gaps mutant limits assumed, form in doubt) above, with N175A counted along it
T11 sequence (Q02763 other isoform, or with tags, fused parts or gaps limits assumed, form in doubt): as the sequence (Q02763 other isoform, or with tags, fused parts or gaps mutant limits assumed, form in doubt) above, with E129A counted along it
T10 sequence (Q02763 other isoform, or with tags, fused parts or gaps limits assumed, form in doubt): as the sequence (Q02763 other isoform, or with tags, fused parts or gaps mutant limits assumed, form in doubt) above, with R28A, H30A, E31A, P32A counted along it
T3 sequence (Q02763 other isoform, or with tags, fused parts or gaps limits assumed, form in doubt): as the sequence (Q02763 other isoform, or with tags, fused parts or gaps mutant limits assumed, form in doubt) above, with I151A counted along it
T2 sequence (Q02763 other isoform, or with tags, fused parts or gaps limits assumed, form in doubt): as the sequence (Q02763 other isoform, or with tags, fused parts or gaps mutant limits assumed, form in doubt) above, with D150A counted along it
T12 sequence (Q02763 other isoform, or with tags, fused parts or gaps limits assumed, form in doubt): as the sequence (Q02763 other isoform, or with tags, fused parts or gaps mutant limits assumed, form in doubt) above, with Y134A counted along it
T8 sequence (Q02763 other isoform, or with tags, fused parts or gaps limits assumed, form in doubt): as the sequence (Q02763 other isoform, or with tags, fused parts or gaps mutant limits assumed, form in doubt) above, with W60A, K62A counted along it
T9 sequence (Q02763 other isoform, or with tags, fused parts or gaps limits assumed, form in doubt): as the sequence (Q02763 other isoform, or with tags, fused parts or gaps mutant limits assumed, form in doubt) above, with S72A, K73A counted along it

Binding ratio [1]: 0.34 | Relative value (%) of binding ratio (human Tie2 (1-452)-Fc chimeric protein = 100%) [1]: 119% | Binding ratio [2]: 0.29 | Relative value (%) of binding ratio (human Tie2 (1-452)-Fc chimeric protein = 100%) [2]: 100% | Binding ratio [3]: 0.3 | Relative value (%) of binding ratio (human Tie2 (1-452)-Fc chimeric protein = 100%) [3]: 106% | Binding ratio [4]: 0.03 | Relative value (%) of binding ratio (human Tie2 (1-452)-Fc chimeric protein = 100%) [4]: 9% | Binding ratio [5]: 0.06 | Relative value (%) of binding ratio (human Tie2 (1-452)-Fc chimeric protein = 100%) [5]: 23% | Binding ratio [6]: 0.03 | Relative value (%) of binding ratio (human Tie2 (1-452)-Fc chimeric protein = 100%) [6]: 9% | Binding ratio [7]: 0.38 | Relative value (%) of binding ratio (human Tie2 (1-452)-Fc chimeric protein = 100%) [7]: 131% | Binding ratio [8]: 0.31 | Relative value (%) of binding ratio (human Tie2 (1-452)-Fc chimeric protein = 100%) [8]: 107% | Binding ratio [9]: 0.04 | Relative value (%) of binding ratio (human Tie2 (1-452)-Fc chimeric protein = 100%) [9]: 12% | Binding ratio [10]: 0.54 | Relative value (%) of binding ratio (human Tie2 (1-452)-Fc chimeric protein = 100%) [10]: 189% | Binding ratio [11]: 0.1 | Relative value (%) of binding ratio (human Tie2 (1-452)-Fc chimeric protein = 100%) [11]: 34% | Binding ratio [12]: 0.17 | Relative value (%) of binding ratio (human Tie2 (1-452)-Fc chimeric protein = 100%) [12]: 59% | Binding ratio [13]: 0.13 | Relative value (%) of binding ratio (human Tie2 (1-452)-Fc chimeric protein = 100%) [13]: 44% | Binding ratio [14]: 0.39 | Relative value (%) of binding ratio (human Tie2 (1-452)-Fc chimeric protein = 100%) [14]: 135% | Binding ratio [15]: 0.31 | Relative value (%) of binding ratio (human Tie2 (1-452)-Fc chimeric protein = 100%) [15]: 109% | Binding ratio [16]: 0.29 | Relative value (%) of binding ratio (human Tie2 (1-452)-Fc chimeric protein = 100%) [16]: 100%
B1: fully human 2-16A2-Fab (Fab, V domains shown)
VH: EVQLVESGGGLVQPGGSLRLSCAASGFTFDDYAMHWVRQAPGKGLEWVAGISWNSGSIVYADSVKGRFTISRDNSKNTLYLQMNSLRAEDTAVYYCAKDIREQLVEDAFDIWGQGTLVTVSS
VL: DIQMTQSPSSLSASVGDRVTITCRSSQSLLHSHRYNYLDWYQQKPGKAPKLLIYLGSNRASGVPSRFSGSGSGTDFTLTISSVQPEDFATYYCMQTLQTPLTFGQGTKVEIKR
notes: also called Fab of the fully human 2-16A2
